In US7351689:

T1: zcyto24 (mouse IL-28) (mouse) (UniProt Q4VK74)
T1 sequence: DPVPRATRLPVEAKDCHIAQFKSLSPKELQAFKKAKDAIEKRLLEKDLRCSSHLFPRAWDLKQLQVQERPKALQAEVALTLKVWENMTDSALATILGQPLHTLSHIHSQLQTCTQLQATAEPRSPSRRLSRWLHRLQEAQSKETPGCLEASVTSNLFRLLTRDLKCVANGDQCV

T2: zcyto20 (IL-28A), human (human) (UniProt Q8IZJ0)
T2 sequence: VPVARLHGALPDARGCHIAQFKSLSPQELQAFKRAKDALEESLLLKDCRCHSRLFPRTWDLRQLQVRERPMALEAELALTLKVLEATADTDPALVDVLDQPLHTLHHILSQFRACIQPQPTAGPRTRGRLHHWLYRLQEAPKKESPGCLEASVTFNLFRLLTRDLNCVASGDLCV


How the values were obtained:
Experiment in all cases: cell-based or functional assay
[1] = biological target: T1, zcyto24 (mouse IL-28) (mouse)
[2] = biological target: T2, zcyto20 (IL-28A), human (human)
[3] = biological target: zcyto21 (SEQ ID NO:15) (human) (UniProt Q8IU54)
Chain of zcyto21 (SEQ ID NO:15) (human) (Q8IU54 other isoform, or with tags, fused parts or gaps): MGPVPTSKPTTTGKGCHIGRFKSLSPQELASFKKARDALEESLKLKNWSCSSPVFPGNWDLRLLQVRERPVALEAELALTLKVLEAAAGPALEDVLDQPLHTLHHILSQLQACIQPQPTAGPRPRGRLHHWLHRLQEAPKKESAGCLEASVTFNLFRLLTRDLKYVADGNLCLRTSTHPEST

[4] = biological target: human IL-28 receptor on transfected 293 HEK cells (IL-28 receptor alpha subunit with endogenous CRF2-4) (human)
Chain of human IL-28 receptor on transfected 293 HEK cells (IL-28 receptor alpha subunit with endogenous CRF2-4) (human) (Q8IU57 whole entry, chain 1 of 2): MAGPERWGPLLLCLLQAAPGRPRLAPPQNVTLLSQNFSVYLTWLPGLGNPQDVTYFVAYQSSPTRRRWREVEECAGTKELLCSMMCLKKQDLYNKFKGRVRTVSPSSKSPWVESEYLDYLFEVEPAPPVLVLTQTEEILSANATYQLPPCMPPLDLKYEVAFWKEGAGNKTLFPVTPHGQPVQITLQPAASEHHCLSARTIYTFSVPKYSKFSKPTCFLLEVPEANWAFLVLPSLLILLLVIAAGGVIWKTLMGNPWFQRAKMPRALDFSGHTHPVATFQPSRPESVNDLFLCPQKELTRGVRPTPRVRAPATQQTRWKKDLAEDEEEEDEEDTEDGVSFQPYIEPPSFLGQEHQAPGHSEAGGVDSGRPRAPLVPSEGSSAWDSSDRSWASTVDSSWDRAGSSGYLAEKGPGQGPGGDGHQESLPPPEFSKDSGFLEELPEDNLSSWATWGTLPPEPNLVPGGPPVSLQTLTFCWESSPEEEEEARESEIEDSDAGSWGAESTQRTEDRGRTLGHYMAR
Chain of human IL-28 receptor on transfected 293 HEK cells (IL-28 receptor alpha subunit with endogenous CRF2-4) (human) (Q08334 whole entry, chain 2 of 2, further chain): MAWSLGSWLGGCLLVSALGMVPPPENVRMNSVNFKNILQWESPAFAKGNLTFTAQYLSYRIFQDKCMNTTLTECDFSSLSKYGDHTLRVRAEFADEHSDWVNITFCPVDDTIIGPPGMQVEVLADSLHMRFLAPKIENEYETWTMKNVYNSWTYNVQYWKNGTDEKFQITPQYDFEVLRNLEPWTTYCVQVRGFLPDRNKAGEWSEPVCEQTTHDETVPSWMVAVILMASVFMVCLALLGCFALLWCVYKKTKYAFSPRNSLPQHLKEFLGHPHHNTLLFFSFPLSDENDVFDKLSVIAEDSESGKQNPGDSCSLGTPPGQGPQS

| Percent Inhibition of Ligand-induced Interferon Stimulated Response Element (ISRE) Signaling by Soluble Receptors (10 ng/ml ligand, 10 micrograms/ml soluble receptor) [1] [%] | Percent Inhibition of Ligand-induced Interferon Stimulated Response Element (ISRE) Signaling by Soluble Receptors (10 ng/ml ligand, 10 micrograms/ml soluble receptor) [2] [%] | Percent Inhibition of Ligand-induced Interferon Stimulated Response Element (ISRE) Signaling by Soluble Receptors (10 ng/ml ligand, 10 micrograms/ml soluble receptor) [3] [%] | ISRE Signaling of Transfected 293 Cells Following Class II Cytokine Stimulation (Fold Induction), ISRE-Luc./IL-28R, IL-28B 125 ng/ml (fold induction) [4] | Binder |
| --- | --- | --- | --- | --- |
| 89 | 91 | 103 |  | murine zcytor19-Ig homodimer (Fc fusion, mouse, UniProt Q8CGK5 21-227, looked up, not shown: a dimerising Fc or GST) RPRLAPPRNVTLFSQNFTVYLTWLPGLGSPPNVTYFVTYQSYIKTGWRPVEHCAGIKALVCPLMCLKKLNLYSKFKGRVQAASAHGRSPRVESRYLEYLFDVELAPPTLVLTQMEKILRVNATYQLPPCMPSLELKYQVEFWKEGLGSKTLFPDTPYGQPVQIPLQQGASRRHCLSARTVYTLIDIKYSQFSEPSCIFLEAPGDKRA |
|  |  |  | 104 | IL-28B (SEQ ID NO: 6) (ligand) VPVARLRGALPDARGCHIAQFKSLSPQELQAFKRAKDALEESLLLKDCKCRSRLFPRTWDLRQLQVRERPVALEAELALTLKVLEATADTDPALGDVLDQPLHTLHHILSQLRACIQPQPTAGPRTRGRLHHWLHRLQEAPKKESPGCLEASVTFNLFRLLTRDLNCVASGDLCV |
| 47 | 16 | 16 |  | human zcytor19-Fc/human CRF2-4-Fc heterodimer (Fc fusion, from a related filing, not shown: a dimerising Fc or GST, left off: a dimerising Fc or GST) chain 1: RPRLAPPQNVTLLSQNFSVYLTWLPGLGNPQDVTYFVAYQSSPTRRRWREVEECAGTKELLCSMMCLKKQDLYNKFKGRVRTVSPSSKSPWVESEYLDYLFEVEPAPPVLVLTQTEEILSANATYQLPPCMPPLDLKYEVAFWKEGAGNKTLFPVTPHGQPVQITLQPAASEHHCLSARTIYTFSVPKYSKFSKPTCFLLEVPEANWA chain 2: MVPPPENVRMNSVNFKNILQWESPAFAKGNLTFTAQYLSYRIFQDKCMNTTLTECDFSSLSKYGDHTLRVRAEFADEHSDWVNITFCPVDDTIIGPPGMQVEVLADSLHMRFLAPKIENEYETWTMKNVYNSWTYNVQYWKNGTDEKFQITPQYDFEVLRNLEPWTTYCVQVRGFLPDRNKAGEWSEPVCEQTTHDETVPS |
| 90 | 92 | 45 |  | human zcytor19-Fc homodimer (Fc fusion, not shown: a dimerising Fc or GST) RPRLAPPQNVTLLSQNFSVYLTWLPGLGNPQDVTYFVAYQSSPTRRRWREVEECAGTKELLCSMMCLKKQDLYNKFKGRVRTVSPSSKSPWVESEYLDYLFEVEPAPPVLVLTQTEEILSANATYQLPPCMPPLDLKYEVAFWKEGAGNKTLFPVTPHGQPVQITLQPAASEHHCLSARTIYTFSVPKYSKFSKPTCFLLEVPEANWA |
| 82 | 80 | 79 |  | human CRF2-4-Fc homodimer (Fc fusion, from a related filing, left off: a dimerising Fc or GST) MVPPPENVRMNSVNFKNILQWESPAFAKGNLTFTAQYLSYRIFQDKCMNTTLTECDFSSLSKYGDHTLRVRAEFADEHSDWVNITFCPVDDTIIGPPGMQVEVLADSLHMRFLAPKIENEYETWTMKNVYNSWTYNVQYWKNGTDEKFQITPQYDFEVLRNLEPWTTYCVQVRGFLPDRNKAGEWSEPVCEQTTHDETVPS |
